Assays:
IgE-Fc(N265Q,N371Q) [1] = biological target: T1, IgE-Fc(N265Q,N371Q) (human, UniProt P01854); assay: ITC
T1 chain: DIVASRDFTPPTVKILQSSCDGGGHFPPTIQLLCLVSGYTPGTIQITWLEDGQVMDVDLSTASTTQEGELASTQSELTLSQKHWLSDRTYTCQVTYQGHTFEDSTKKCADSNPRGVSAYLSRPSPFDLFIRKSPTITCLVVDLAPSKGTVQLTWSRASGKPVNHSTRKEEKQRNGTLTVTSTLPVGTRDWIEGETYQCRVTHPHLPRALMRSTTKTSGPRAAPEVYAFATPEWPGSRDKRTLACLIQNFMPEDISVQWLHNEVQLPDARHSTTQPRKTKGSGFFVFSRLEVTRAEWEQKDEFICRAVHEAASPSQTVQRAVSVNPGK

IgE-Fc(N265Q,N371Q) [2] = biological target: T1, IgE-Fc(N265Q,N371Q); assay: ITC
IgE-Fc(N265Q,N371Q) [3] = biological target: T1, IgE-Fc(N265Q,N371Q); assay: SPR
IgE-Fc(N265Q,N371Q) [4] = biological target: T1, IgE-Fc(N265Q,N371Q); assay: stopped-flow fluorescence

B1: anti-ε-chain Fab (aεFab), anti-human IgE-Fc antibody in human IgG1 Fab format (Fab, V domains shown)
VH: QVQLQQSGPGLVKPSQTLSLTCGISGDSVSSNSAAWNWLRQSPSRGLEWLGRTYYRSKWYNDYAVSMKSRITINPDTSRNQFSLQLNSVTPEDTAVYYCARDGEISYDYYYYGMDVWGRGTLVTVSS
VL: QSVLTQPPSASGTPGQRVTISCSGSSSNIGNNGVNWYQQVPGKPPKLLIYYDDLLPSGVSDRFSGSKSGTSASLAISGLQSEDEADYYCEAWDDSLDGVVFGGGTKLTVL
dH1 (first site) (IgE-Fc(N265Q,N371Q) [1]): -3.5 ± 0.1 kcal/mol | dH2 (second site) (IgE-Fc(N265Q,N371Q) [1]): -1.3 ± 0.1 kcal/mol | Kd (IgE-Fc(N265Q,N371Q) [2]): 40 ± 20 nM | dH (IgE-Fc(N265Q,N371Q) [2]): -3.5 ± 0.1 kcal/mol | Kd (IgE-Fc(N265Q,N371Q) [3]): 95 nM | kon (IgE-Fc(N265Q,N371Q) [4]): 670000 M⁻¹ s⁻¹
